Assay [1] concerns the target T1, CDC42Hs (human, UniProt P60953). Description: inferred from the dose response of GDI activity; reference rhoGDI.
In assay [2] the target is rac 1 (Homo sapiens (Human)) (UniProt P63000). Described as above.
Assay [3] has as its target T1, CDC42Hs.
The target of assay [4] is CDC42Hs (human) (UniProt P60953).
The target is the same in assay [5]. Put plainly: inferred from the dose response of GDI activity; reference rhoGDI.
Assay [6] shares this target. The source holds these as a separate data set.
Assay [7] addresses T1, CDC42Hs. Put plainly: cell-based or functional assay.

The source of these data is US5767073, “D4 gene and methods of use thereof” (Beth Israel Hospital Association, dated 1998).

Regarding human D4 protein, the times lower binding than rhoGDI in assay [1] and in assay [2] was 30 to 40 times throughout. Moreover, the GDI activity (times more concentration than rhoGDI) in assay [3] was over 10.

B1: GST-mD4 (glutathione-S-transferase fusion protein of murine D4) (protein)
chain: MTEKDAQPQLEEADDDLDSKLNYKPPPQKSLKELQEMDKDDESLTKYKKTLLGDVPVVADPTVPNVTVTRLSLVCDSAPGPITMDLTGDLEALKKDTFVLKEGIEYRVKINFKVNKDIVSGLKYVQHTYRTGMRVDKATFMVGSYGPRPEEYEFLTPVEEAPKGMLARGTYHNKSFFTDDDKQDHLTWEWNLAIKKDWTEZ
As to B1, the apparent EC50, GDP dissociation inhibition assay in assay [4] lay in the range of 7 to 8 µM. In addition, the times lower binding than rhoGDI in assay [5] lay within 30 to 40 times. For the same molecule, in assay [6], the GDI activity (times more concentration than rhoGDI) was over 10.

B2: GST-LD4 (glutathione-S-transferase fusion protein of LD4) (other)
chain: MTEKAPEPHVEEDDDDELDSKLNYKPPPQKSLKELQEMDKDDESLIKYKKTLLGDGPVVTDPKAPNVVVTRLTLVCESAPGPITMDLTGDLEALKKETIVLKEGSEYRVKIHFKVNRDIVSGLKYVQHTYRTGVKVDKATFMVGSYGPRPEEYEFLTPVEEAPKGMLAQDTYHNKSFFTDDDKQDHLSWEWNLSIKKEWTE
In the case of B2, the “apparent EC50, GDP dissociation inhibition assay” value in assay [7] was 7 to 8 µM.

B3: GST-GN LC (chimera of the entire rho GDI sequence except that the carboxyl terminal 33 amino acids were from LD4) (other)
chain: MAEQEPTAEQLAQIAAENEEDEHSVNYKPPAQKSIQEIQELDKDDESLRKYKEALLGRVAVSADPNVPNVVVTGLTLVCSSAPGPLELDLTGDLESFKKQSFVLKEGVEYRIKISFRVNREIVSGMKYIQHTYRKGVKIDKTDYMVGSYGPRAEEYEFLTPVEEAPKGMLAQDTYHNKSFFTDDDKQDHLSWEWNLSIKKEWTE
As to B3, in assay [7], the “GDP dissociation inhibition assay” value was ≥ 20 fold less effective than rho GDI.
